# Experimental data taken from publication PMC3471918 (PLoS ONE, 2012).
# B1: rat insulin degrading enzyme (IDE), wild type (enzyme, UniProt P35559 1-1019, looked up)
# chain: MNNPAIQRIEDHIVKSPEDKREYRGLELANGIKVLLISDPTTDKSSAALDVHIGSLSDPPNIPGLSHFCEHMLFLGTKKYPKENEYSQFLSEHAGSSNAFTSGEHTNYYFDVSHEHLEGALDRFAQFFLCPLFDASCKDREVNAVDSEHEKNVMNDAWRLFQLEKATGNPKHPFSKFGTGNKYTLETRPNQEGIDVREELLKFHSTYYSSNLMAICVLGRESLDDLTNLVVKLFSEVENKNVPLPEFPEHPFQEEHLKQLYKIVPIKDIRNLYVTFPIPDLQQYYKSNPGHYLGHLIGHEGPGSLLSELKSKGWVNTLVGGQKEGARGFMFFIINVDLTEEGLLHVEDIILHMFQYIQKLRAEGPQEWVFQECKDLNAVAFRFKDKERPRGYTSKIAGKLHYYPLNGVLTAEYLLEEFRPDLIDMVLDKLRPENVRVAIVSKSFEGKTDRTEQWYGTQYKQEAIPEDVIQKWQNADLNGKFKLPTKNEFIPTNFEILALEKDATPYPALIKDTAMSKLWFKQDDKFFLPKACLNFEFFSPFAYVDPLHCNMAYLYLELLKDSLNEYAYAAELAGLSYDLQNTIYGMYLSVKGYNDKQPILLKKITEKMATFEIDKKRFEIIKEAYMRSLNNFRAEQPHQHAMYYLRLLMTEVAWTKDELKEALDDVTLPRLKAFIPQLLSRLHIEALLHGNITKQAALGVMQMVEDTLIEHAHTKPLLPSQLVRYREVQLPDRGWFVYQRRNEVHNNCGIEIYYQTDMQSTSENMFLELFCQIISEPCFNTLRTKEQLGYIVFSGPRRANGIQGLRFIIQSEKPPHYLESRVEAFLITMEKAIEDMTEEAFQKHIQALAIRRLDKPKKLSAECAKYWGEIISQQYNYDRDNIEVAYLKTLSKDDIIKFYKEMLAVDAPRRHKVSVHVLAREMDSCPVVGEFPSQNDINLSEAPPLPQPEVIHNMTEFKRGLPLFPLVKPHINFMAAKL
# notes: Insulin degrading enzyme, rat; EC 3.4.24.56; also called wild type IDE; native enzyme; source: Sf9 insect cells, purified (HIS-select Ni-NTA agarose)
# What was measured:
# Test in all cases: AUC; sedimentation velocity, 4°C, 40,000 rpm, 50 mM Tris pH 7.4, absorbance at 280 nm, c(s,ff0) distributions by SEDFIT corrected to 20,w; monomer, dimer and higher oligomers
# [1] = target: cysteine-free rat insulin degrading enzyme (all twelve cysteines converted to serines) (rat) (UniProt P35559)
# [2] = target: rat insulin degrading enzyme C904S (rat) (UniProt P35559)
# [3] = target: the molecule itself
molecule,measurement,setting,value
cysteine-free rat insulin degrading enzyme (all twelve cysteines converted to serines) (from UniProt P35559 1-1019),fold decrease in dimer content against wild type IDE,[1],2 fold
rat insulin degrading enzyme C904S (from UniProt P35559 1-1019),stoichiometry N,[2],2
B1,stoichiometry N,[3],2
